Experimental findings from patent US20240150440A1 (LUMEN BIOSCIENCE, published 2024) are described below.

Where two headings read alike, the source gives them in different places.

Test [1] addresses T1, recombinant SARS-CoV-2 RBD with C-terminal AviTag (SARS-CoV-2, UniProt P0DTC2 319-541). The test can be described thus: ELISA, competition with coated ACE2-Fc for RBD [Cont. 8].
Test [2] concerns the target T1, recombinant SARS-CoV-2 RBD with ….
Test [3] deals with SARS-COV-2 Wuhan Reference RBD (SARS-CoV-2, UniProt P0DTC2 319-541). Kind of test: ELISA, RBD coated. (ELISA stands for enzyme-linked immunosorbent assay.)
Test [4] has as its target T1, recombinant SARS-CoV-2 RBD with …. Kind of test: BLI, biotinylated RBD on streptavidin biosensors [Cont. 6].
Test [5] has the same target. The test can be described thus: ELISA, competition with coated ACE2-Fc for RBD [Cont. 6].

B1: PP922 MBP-R5a-F5-H6 (VHH)
VHH: QVQLVESGGGLVQPGGSLRLSCAASGYHASILAMHWVRQAPGKEREWVASMTWSDMTQYSDSVKGRFTISRDNAKNTVYLQMNSLKPEDTAVYYCAATYVTRDRPWTHWGQGTQVTVSS
notes: Form: Monomer
In general, IC50 refers to the concentration that gives 50% inhibition. For B1, the IC50 in test [1] was determined as 97.9 nM.

B2: MBP-R5C-E3-H6 (VHH, not shown: large carriers; small tags and cut ends)
VHH: QVQLVESGGGLVQPGGSLRLSCAASGSFFSINAVHWFRQAPGKEREFVASISVGDSRSYRDSVKGRFTISRDNAKNTVYLQMNSLKPEDTAVYYCAAQIYITTYELYDYWGQGTQVTVSS
The Kd is a measure of binding affinity in units of concentration. Turning to B2, the Kd in test [2] was roughly 1370 nM.

B3: MBP-5HVZ-R5C-E3-H6 (VHH, not shown: large carriers; small tags and cut ends)
VHH: QVQLVESGGGLVQPGGSLRLSCAASGSFFSINAVHWFRQAPGKEREFVASISVGDSRSYRDSVKGRFTISRDNAKNTVYLQMNSLKPEDTAVYYCAAQIYITTYELYDYWGQGTQVTVSS
Turning to B3, in test [2], the IC50 is 9.2 nM.

B4: PP1095 MBP-5HVZ-PAPA-RN-2-H6 (VHH)
VHH: QVQLVESGGGLVQPGGSLRLSCAASGSYFSKNAVHWYRQAPGKGREWVAALTNSGSGNYKDSVKGRFTISRDNAKNTVYLQMNSLKPEDTAVYYCTANISESTGQGYDYWGQGTQVTVSS
One may read the EC50 as the midpoint of the concentration-response curve. A higher EC50 goes with a need for much substance. Turning to B4, the IC50 in test [1] is 3.2 nM. Further, the response in test [3] was half-maximal at 0.78 nM (EC50).

B5: MBP-R5C-B1-H6 (VHH, not shown: large carriers; small tags and cut ends)
VHH: QVQLVESGGGLVQPGGSLRLSCAASGSGFSNNAMHWYRQAPGKQREGVAGITSGSVSFYADSVKGRFTISRDNAKNTVYLQMNSLKPEDTAVYYCAAVTGSSTGNAGQGYLTWGQGTQVTVSS
Consider B5, for which the dissociation constant Kd in test [2] came out at 55.3 nM.

B6: PP883 MBP-R1e-D4-H6 (VHH)
VHH: QVQLVESGGGLVQPGGSLRLSCAASGSIREINAMHWVRQAPGKGRELVASIDSGSLDYYADSVKGRFTISRDNAKNTVYLQMNSLKPEDTAVYYCAASRSGDYRYWGQGTQVTVSS
notes: Form: Monomer
Turning to B6, the Kd in test [4] worked out at 47 nM.

B7: PP1097 MBP-5HVZ-PAPA-RN-5-H6 (VHH)
VHH: QVQLVESGGGLVQPGGSLRLSCAASGSSFRILAMHWYRQAPGKNREWVAVITSNGNTYYADSVKGRFTISRDNAKNTVYLQMNSLKPEDTAVYYCNADTLDLDDGATYNYWGQGTQVTVSS
For B7, the IC50 in test [1] came to 2.3 nM. This molecule displayed an EC50 in test [3] of 0.25 nM.

B8: PP1096 MBP-5HVZ-PAPA-RN-3-H6 (VHH)
VHH: QVQLVESGGGLVQPGGSLRLSCAASGFEFTYRAVHWFRQAPGKGREWVAGVVSGGSTYYADSVKGRFTISRDNAKNTVYLQMNSLKPEDTAVYYCNAGPQAEEDTYDYWGQGTQVTVSS
In the case of B8, the IC50 in test [1] came to 46.8 nM. Moreover, the EC50 in test [3] is 1.47 nM.

B9: PP881 MBP-R5a-F2-H6 (VHH)
VHH: QVQLVESGGGLVQPGGSLRLSCAASGSISSIEAMSWFRQAPGKQREGVATMASGGDTSYADSVKGRFTISRDNAKNTVYLQMNSLKPEDTAVYYCAAQTYRPDTWGRYTFWGQGTQVTVSS
notes: Form: Monomer
With B9, the Kd in test [4] is 705 nM.

B10: PP900 MBP-5HVZ-R5a-F2-H6 (VHH)
VHH: QVQLVESGGGLVQPGGSLRLSCAASGSISSIEAMSWFRQAPGKQREGVATMASGGDTSYADSVKGRFTISRDNAKNTVYLQMNSLKPEDTAVYYCAAQTYRPDTWGRYTFWGQGTQVTVSS
notes: Form: Dimer
As for B10, the Kd in test [4] came to 9.13 nM. The IC50 in test [5] stood at 1.7 nM. It took 0.47 nM to reach a half-maximal effect in test [3] (EC50).

B11: R5C-A2 (competition ELISA sample) (VHH)
VHH: QVQLVESGGGLVQPGGSLRLSCAASGDIFSKNAMHWVRQAPGKQREFVAGIYSDGSSLYADSVKGRFTISRDNAKNTVYLQMNSLKPEDTAVYYCAALDYSARYRTWGQGTQVTVSS
In the case of B11, in test [2], the IC50 was found to be 13.7 nM and the Kd was determined as 13.2 nM.

B12: PP935 MBP-5HVZ-S3b-E11-H6 (VHH)
VHH: QVQLVESGGGLVQPGGSLRLSCAASGDIYSQSAMAWYRQAPGKEREFVAAITTTGSRSYKDSVKGRFTISRDNAKNTVYLQMNSLKPEDTAVYYCAAFAVRSSSVSDAYDYWGQGTQVTVSS
notes: Form: Dimer
Turning to B12, the IC50 in test [1] was determined as 12.2 nM. This molecule also registered an EC50 in test [3] of 0.47 nM.

B13: PP885 MBP-R5b-C5-H6 (VHH)
VHH: QVQLVESGGGLVQPGGSLRLSCAASGSPFKTQTVHWFRQAPGKGREWVASITSGSGTQYMDSVKGRFTISRDNAKNTVYLQMNSLKPEDTAVYYCAAANDGYGVDWGQGTQVTVSS
notes: Form: Monomer
As for B13, the Kd in test [4] is 88.5 nM.

B14: PP904 MBP-5HVZ-R5b-C5-H6 (VHH)
VHH: QVQLVESGGGLVQPGGSLRLSCAASGSPFKTQTVHWFRQAPGKGREWVASITSGSGTQYMDSVKGRFTISRDNAKNTVYLQMNSLKPEDTAVYYCAAANDGYGVDWGQGTQVTVSS
notes: Form: Dimer
On to B14, for which the Kd in test [4] was found to be 11.8 nM. The IC50 in test [5] amounted to 2.5 nM. Moreover, the EC50 in test [3] is 1.06 nM.

B15: PP901 MBP-5HVZ-R1e-B2-H6 (VHH)
VHH: QVQLVESGGGLVQPGGSLRLSCAASGQITAENYMHWYRQAPGKQREWVAAITTGGSTLYADSVKGRFTISRDNAKNTVYLQMNSLKPEDTAVYYCNADRSYFPDYWGQGTQVTVSS
notes: Form: Dimer
With B15, the Kd in test [4] was 197 nM.

B16: PP880 MBP-R5a-B5-H6 (VHH)
VHH: QVQLVESGGGLVQPGGSLRLSCAASGDDFIENAISWYRQAPGKGREWVAAVTLGGHSNYADSVKGRFTISRDNAKNTVYLQMNSLKPEDTAVYYCNYPVGIPAVAIDGRRSYGYWGQGTQVTVSS
notes: Form: Monomer
Regarding B16, in test [4], the Kd worked out at 60.8 nM. In addition, in test [5], the IC50 came out at 43.9 nM.

B17: PP899 MBP-5HVZ-R5a-B5-H6 (VHH)
VHH: QVQLVESGGGLVQPGGSLRLSCAASGDDFIENAISWYRQAPGKGREWVAAVTLGGHSNYADSVKGRFTISRDNAKNTVYLQMNSLKPEDTAVYYCNYPVGIPAVAIDGRRSYGYWGQGTQVTVSS
notes: Form: Dimer
On to B17, for which, in test [5], the IC50 is 0.9 nM.

B18: PP884 MBP-R1i-A11-H6 (VHH)
VHH: QVQLVESGGGLVQPGGSLRLSCAASGSILQINAIHWFRQAPGKQREEVAAITSGGSTGYADSVKGRFTISRDNAKNTVYLQMNSLKPEDTAVYYCAATSTRGGLDSDYWGQGTQVTVSS
notes: Form: Monomer
On to B18, for which the Kd in test [4] was 23.7 nM. In addition, in test [5], the IC50 amounted to 173 nM.

B19: PP903 MBP-5HVZ-R1i-A11-H6 (VHH)
VHH: QVQLVESGGGLVQPGGSLRLSCAASGSILQINAIHWFRQAPGKQREEVAAITSGGSTGYADSVKGRFTISRDNAKNTVYLQMNSLKPEDTAVYYCAATSTRGGLDSDYWGQGTQVTVSS
notes: Form: Dimer
For B19, the Kd in test [4] stood at 6.98 nM. Also, the half-inhibitory concentration (IC50) in test [5] came out at 1.5 nM. In addition, it took 0.27 nM to reach a half-maximal effect in test [3] (EC50).

B20: PP1100 MBP-5HVZ-PAPA-RN-14-H6 (VHH)
VHH: QVQLVESGGGLVQPGGSLRLSCAASGENFSGNLVHWFRQAPGKAREGVATVTSTGSGYYADSVKGRFTISRDNAKNTVYLQMNSLKPEDTAVYYCAAKHQKGEIPYYDWGQGTQVTVSS
notes: Form: Dimer
As to B20, in test [1], the IC50 came out at 3.2 nM. Moreover, the EC50 in test [3] stood at 0.31 nM.

B21: PP1147 MBP-5HVZ-PAPA-R5a-B7-H6 (VHH)
VHH: QVQLVESGGGLVQPGGSLRLSCAASGAFFSYGAIHWFRQAPGKQREEVAAITSGGSTGYADSVKGRFTISRDNAKNTVYLQMNSLKPEDTAVYYCNAGVVWLPSNAAYNLWGQGTQVTVSS
notes: Form: Dimer
With B21, in test [5], the IC50 worked out at 2.4 nM. It took 0.36 nM to reach a half-maximal effect in test [3] (EC50).

B22: PP1159 MPB-scTRP-PAPA-R5a-B7-H6 (VHH)
VHH: QVQLVESGGGLVQPGGSLRLSCAASGAFFSYGAIHWFRQAPGKQREEVAAITSGGSTGYADSVKGRFTISRDNAKNTVYLQMNSLKPEDTAVYYCNAGVVWLPSNAAYNLWGQGTQVTVSS
notes: Form: Trimer
In the case of B22, in test [5], the IC50 came to 56.5 nM.

B23: PP1135 MBP-4B0F-PAPA-R5a-B7-H6 (VHH)
VHH: QVQLVESGGGLVQPGGSLRLSCAASGAFFSYGAIHWFRQAPGKQREEVAAITSGGSTGYADSVKGRFTISRDNAKNTVYLQMNSLKPEDTAVYYCNAGVVWLPSNAAYNLWGQGTQVTVSS
notes: Form: Heptamer
On to B23, for which the IC50 in test [5] was found to be 18.2 nM.

B24: PP1098 MBP-5HVZ-PAPA-RN-9-H6 (VHH)
VHH: QVQLVESGGGLVQPGGSLRLSCAASGLRFAMTEMAWFRQAPGKQREFVALITEGGSGSYGDSVKGRFTISRDNAKNTVYLQMNSLKPEDTAVYYCAALHYTEGANTESATTFDYWGQGTQVTVSS
Consider B24, for which the IC50 in test [1] amounted to 2.3 nM. The molecule further returned an EC50 in test [3] of 0.83 nM.

B25: MBP-5HVZ-R5C-A1-H6 (VHH, not shown: large carriers; small tags and cut ends)
VHH: QVQLVESGGGLVQPGGSLRLSCAASGLDVSINFMHWYRQAPGKEREGVAGITWQGSTYYADSVKGRFTISRDNAKNTVYLQMNSLKPEDTAVYYCATVWAGGTPNDYWGQGTQVTVSS
With B25, in test [2], the IC50 was 10.3 nM and the Kd came to 379 nM.

B26: PP933 MBP-5HVZ-R5e-C1-H6 (VHH)
VHH: QVQLVESGGGLVQPGGSLRLSCAASGSIPYVQAMSWFRQAPGKGREGVASIGWGGGTYYADSVKGRFTISRDNAKNTVYLQMNSLKPEDTAVYYCAAKFRENFSFYDYWGQGTQVTVSS
notes: Form: Dimer
For the molecule B26, the 50% inhibitory concentration (IC50) in test [1] turned out to be 1.9 nM. Moreover, in test [3], the EC50 came out at 4.9 nM.

B27: MBP-5HVZ-R5C-B2-H6 (VHH, not shown: large carriers; small tags and cut ends)
VHH: QVQLVESGGGLVQPGGSLRLSCAASGSIFSLNWVHWFRQAPGKSREGVASINSGGHADYSDSVKGRFTISRDNAKNTVYLQMNSLKPEDTAVYYCAAGPYGAYNFNSWGQGTQVTVSS
On to B27, for which, in test [2], the IC50 was found to be 5.9 nM and the Kd turned out to be 57.3 nM.

B28: PP1094 MBP-5HVZ-PAPA-RN-1-H6 (VHH)
VHH: QVQLVESGGGLVQPGGSLRLSCAASGYIFEGGPTAWFRQAPGKGREFVAAITTSGETSYAYSVKGRFTISRDNAKNTVYLQMNSLKPEDTAVYYCNATDRDETGYDYWGQGTQVTVSS
On to B28, for which the IC50 in test [1] was 7.8 nM. Moreover, the EC50 in test [3] turned out to be 0.96 nM.
